One series addresses T1, endogenous eNOS of HUVEC (UniProt P29474).
T1 sequence: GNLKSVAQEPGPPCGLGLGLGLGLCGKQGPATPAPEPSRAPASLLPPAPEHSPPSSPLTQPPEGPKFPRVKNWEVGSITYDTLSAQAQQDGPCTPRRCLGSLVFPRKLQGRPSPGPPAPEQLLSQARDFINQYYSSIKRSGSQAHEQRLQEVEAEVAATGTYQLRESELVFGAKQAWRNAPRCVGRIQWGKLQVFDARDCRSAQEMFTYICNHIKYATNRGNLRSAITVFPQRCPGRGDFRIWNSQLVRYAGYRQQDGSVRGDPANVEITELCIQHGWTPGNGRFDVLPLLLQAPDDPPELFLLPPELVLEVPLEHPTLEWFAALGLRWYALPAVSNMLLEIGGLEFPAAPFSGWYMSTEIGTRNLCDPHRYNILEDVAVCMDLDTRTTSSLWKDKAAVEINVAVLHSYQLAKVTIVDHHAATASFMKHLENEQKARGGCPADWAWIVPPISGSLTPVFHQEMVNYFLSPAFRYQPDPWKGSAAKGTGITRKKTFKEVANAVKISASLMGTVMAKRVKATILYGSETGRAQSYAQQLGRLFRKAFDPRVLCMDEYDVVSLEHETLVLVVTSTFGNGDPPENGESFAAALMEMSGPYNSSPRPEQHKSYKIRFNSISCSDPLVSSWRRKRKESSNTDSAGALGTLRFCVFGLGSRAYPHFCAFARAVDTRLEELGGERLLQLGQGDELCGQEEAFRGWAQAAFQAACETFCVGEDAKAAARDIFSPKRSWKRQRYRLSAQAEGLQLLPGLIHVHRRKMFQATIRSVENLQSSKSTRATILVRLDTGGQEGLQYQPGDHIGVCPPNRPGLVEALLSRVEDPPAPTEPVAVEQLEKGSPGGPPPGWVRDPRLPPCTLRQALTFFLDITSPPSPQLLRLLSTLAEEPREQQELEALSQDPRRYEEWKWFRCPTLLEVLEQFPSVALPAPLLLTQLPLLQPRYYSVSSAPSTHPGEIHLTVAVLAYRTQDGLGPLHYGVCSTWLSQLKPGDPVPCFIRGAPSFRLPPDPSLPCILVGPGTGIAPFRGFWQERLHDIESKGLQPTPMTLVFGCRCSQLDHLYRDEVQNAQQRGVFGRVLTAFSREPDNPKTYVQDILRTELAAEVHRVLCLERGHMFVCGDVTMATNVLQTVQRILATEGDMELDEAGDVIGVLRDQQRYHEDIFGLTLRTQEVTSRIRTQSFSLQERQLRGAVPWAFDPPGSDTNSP

Series [1] relates to T2, mutant eNOS peptide (1174-1194) with serine 1179 substituted by alanine.
T2 sequence: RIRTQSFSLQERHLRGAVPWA

Series [2] concerns T3, wild type eNOS peptide 1174-RIRTQSFSLQERHLRGAVPWA-1194.
T3 sequence: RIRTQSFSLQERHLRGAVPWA

“constitutively-active Akt (myrAkt), expressed in HUVEC from an adenovirus”: the “32P-phosphate incorporation into endogenous eNOS in HUVEC (immunoprecipitation, autoradiography)” value with endogenous eNOS of HUVEC is on record as “adenovirus-mediated transduction of constitutively-active Akt (myrAkt) led to the incorporation of phosphate into eNOS in the absence of stimulation with simvastatin or VEGF”.

As for “Akt immunoprecipitated from HUVEC lysate with goat polyclonal anti-Akt1 antibody”, in the series with histone H2B, the “phosphorylation of histone H2B by immunoprecipitated Akt (autoradiography)” value is on record as “Akt polypeptide kinase activity was increased in lysates of HUVEC treated with 1.0 µM simvastatin or 100 ng/ml VEGF”. The “32P incorporation into eNOS peptide by immunoprecipitated Akt (in vitro kinase assay)” value in series [1] is “a peptide with alanine substituted for serine at position 1179 did not incorporate appreciable phosphate under any condition tested”; in series [2] it was “Activation of Akt kinase activity was also observed when lysates prepared from simvastatin-treated cells were tested for their ability to phosphorylate a peptide containing the Akt phosphorylation site of eNOS (amino acids 1174 to 1194)”.

The values are drawn from patent publication US20040122077.
